Experimental data reported in patent publication US20080044360A1.
Bridge positions count the residues as written; N and C are the ends. Square brackets hold non-standard residues; d marks the D form. Primed or numbered codes have the meaning given here. Side chains are listed from the residue outwards. Ends that are not written are not given here. * marks the point of attachment. GdDTPA‑thiourea = GdT is GdDTPA-thiourea (Gd-DTPA chelate attached through a thiourea); Phe(3,4-(OMe)2) = COc1ccc(C[C@H](N)C(=O)O)cc1OC; dBip = N[C@H](Cc1ccc(-c2ccccc2)cc1)C(=O)O; Phe(4-CN) = N#Cc1ccc(C[C@H](N)C(=O)O)cc1; Dip = N[C@H](C(=O)O)C(c1ccccc1)c1ccccc1; Phe(4-NH2) = Nc1ccc(C[C@H](N)C(=O)O)cc1; Gd^T(3) = GdDTPA attached via thiourea; d1Nal = N[C@H](Cc1cccc2ccccc12)C(=O)O; Pen = CC(C)(S)[C@H](N)C(=O)O; Orn = NCCC[C@H](N)C(=O)O; Gd^T = not defined here; Gd^T″ = GdDTPA-thiourea; Cbz = O=C(OCc1ccccc1)*; Dap = NC[C@H](N)C(=O)O; GdT = GdDTPA-thiourea

B1: SEQ ID NO 176 (peptide)
peptide: QWTCSGDEYTWHC[dN]YE
modifications: disulfide 4-13 (inferred); not fully specified (N-terminus); printed as QWTCSGDEYTWHCnYE
B2: SEQ ID NO 165 (peptide)
peptide: Q[dW]TCSGDEYTWHCNYE
modifications: disulfide 4-13 (inferred); not fully specified (N-terminus, C-terminus); printed as QwTCSGDEYTWHCNYE
B3: SEQ ID NO 166 (peptide)
peptide: QW[dT]CSGDEYTWHCNYE
modifications: disulfide 4-13 (inferred); not fully specified (N-terminus, C-terminus); printed as QWtCSGDEYTWHCNYE
B4: SEQ ID NO 168 (peptide)
peptide: QWTC[dS]GDEYTWHCNYE
modifications: disulfide 4-13 (inferred); not fully specified (N-terminus); printed as QWTCsGDEYTWHCNYE
B5: SEQ ID NO 175 (peptide)
peptide: QWTCSGDEYTWH[dC]NYE
modifications: disulfide 4-13 (inferred); not fully specified (N-terminus); printed as QWTCSGDEYTWHcNYE
B6: SEQ ID NO 173 (peptide)
peptide: QWTCSGDEYT[dW]HCNYE
modifications: disulfide 4-13 (inferred); not fully specified (N-terminus); printed as QWTCSGDEYTwHCNYE
B7: Compound ID 903 (peptide)
peptide: GdT-GQWHCTTRFPHH[dBip]CLYG
modifications: disulfide 5-14 (inferred); not fully specified (C-terminus); also: gadolinium complex (GdDTPA)

Legend:
[1] = molecular target: rat collagen, acid soluble, type I, rat tail (Upstate 08-115) (rat) (UniProt P02454); assay: dried collagen assay
Chain of rat collagen, acid soluble, type I, rat tail (Upstate 08-115) (rat) (P02454 152-1207, chain 1 of 2): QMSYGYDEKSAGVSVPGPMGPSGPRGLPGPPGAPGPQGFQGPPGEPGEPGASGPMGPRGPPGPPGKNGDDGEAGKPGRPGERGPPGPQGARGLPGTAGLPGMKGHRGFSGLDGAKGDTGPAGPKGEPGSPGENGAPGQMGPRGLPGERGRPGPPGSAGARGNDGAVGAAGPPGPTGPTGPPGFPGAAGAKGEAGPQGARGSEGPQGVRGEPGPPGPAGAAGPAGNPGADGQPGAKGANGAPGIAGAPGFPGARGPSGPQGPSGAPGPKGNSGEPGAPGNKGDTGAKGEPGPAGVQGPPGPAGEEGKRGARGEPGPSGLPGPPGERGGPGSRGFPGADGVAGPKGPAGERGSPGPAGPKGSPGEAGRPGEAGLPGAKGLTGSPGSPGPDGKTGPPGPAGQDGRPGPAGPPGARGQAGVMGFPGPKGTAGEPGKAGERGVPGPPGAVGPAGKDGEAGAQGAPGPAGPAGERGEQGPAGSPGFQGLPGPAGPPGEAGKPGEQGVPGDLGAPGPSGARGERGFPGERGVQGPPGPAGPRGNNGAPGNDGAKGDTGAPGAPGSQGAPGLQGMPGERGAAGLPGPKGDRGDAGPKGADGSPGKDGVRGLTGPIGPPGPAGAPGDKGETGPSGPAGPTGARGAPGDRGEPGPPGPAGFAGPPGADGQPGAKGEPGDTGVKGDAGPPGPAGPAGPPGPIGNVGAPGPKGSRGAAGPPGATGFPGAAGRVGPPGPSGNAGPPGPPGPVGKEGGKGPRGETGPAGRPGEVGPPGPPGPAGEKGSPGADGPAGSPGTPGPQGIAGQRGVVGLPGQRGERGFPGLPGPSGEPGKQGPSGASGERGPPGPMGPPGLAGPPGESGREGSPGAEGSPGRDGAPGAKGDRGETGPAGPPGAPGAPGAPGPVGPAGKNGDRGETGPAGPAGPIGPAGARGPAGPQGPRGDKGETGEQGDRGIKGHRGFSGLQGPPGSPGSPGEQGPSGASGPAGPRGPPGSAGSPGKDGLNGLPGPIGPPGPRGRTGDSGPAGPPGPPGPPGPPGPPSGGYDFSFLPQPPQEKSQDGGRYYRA
Chain of rat collagen, acid soluble, type I, rat tail (Upstate 08-115) (rat) (P02466 86-1125, chain 2 of 2, further chain): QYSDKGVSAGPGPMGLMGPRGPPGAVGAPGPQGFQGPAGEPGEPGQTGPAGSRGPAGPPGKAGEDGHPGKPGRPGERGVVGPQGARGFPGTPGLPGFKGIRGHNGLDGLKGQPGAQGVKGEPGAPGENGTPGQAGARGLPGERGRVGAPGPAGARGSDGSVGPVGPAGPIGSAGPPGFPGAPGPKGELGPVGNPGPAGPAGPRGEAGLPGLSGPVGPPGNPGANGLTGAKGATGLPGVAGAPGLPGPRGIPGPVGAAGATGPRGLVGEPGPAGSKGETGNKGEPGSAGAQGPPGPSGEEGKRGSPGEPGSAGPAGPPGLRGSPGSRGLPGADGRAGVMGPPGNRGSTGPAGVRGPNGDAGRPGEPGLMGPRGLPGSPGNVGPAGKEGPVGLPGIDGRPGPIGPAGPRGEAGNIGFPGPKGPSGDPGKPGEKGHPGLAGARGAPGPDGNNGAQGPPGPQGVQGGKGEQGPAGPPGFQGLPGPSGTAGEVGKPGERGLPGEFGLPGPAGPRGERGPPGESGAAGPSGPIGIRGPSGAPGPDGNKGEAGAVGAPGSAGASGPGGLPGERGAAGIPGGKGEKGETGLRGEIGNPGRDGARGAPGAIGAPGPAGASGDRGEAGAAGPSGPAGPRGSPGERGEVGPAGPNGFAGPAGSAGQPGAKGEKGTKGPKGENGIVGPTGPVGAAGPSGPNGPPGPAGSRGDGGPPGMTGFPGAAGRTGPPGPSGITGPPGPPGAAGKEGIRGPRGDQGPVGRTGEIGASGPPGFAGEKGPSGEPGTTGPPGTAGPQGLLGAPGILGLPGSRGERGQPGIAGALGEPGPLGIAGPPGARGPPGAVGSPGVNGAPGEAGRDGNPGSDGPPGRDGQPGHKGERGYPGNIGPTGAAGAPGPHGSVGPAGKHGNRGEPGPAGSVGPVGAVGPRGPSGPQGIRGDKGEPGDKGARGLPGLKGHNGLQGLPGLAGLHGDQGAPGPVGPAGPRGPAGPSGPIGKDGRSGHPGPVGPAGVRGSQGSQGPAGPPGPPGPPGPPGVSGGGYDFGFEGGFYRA

[2] = molecular target: human collagen type I, acid soluble, extracted from placenta (Sigma C7774) (human) (UniProt P02452); assay: dried collagen assay
Chain of human collagen type I, acid soluble, extracted from placenta (Sigma C7774) (human) (P02452 162-1218 limits assumed, chain 1 of 2): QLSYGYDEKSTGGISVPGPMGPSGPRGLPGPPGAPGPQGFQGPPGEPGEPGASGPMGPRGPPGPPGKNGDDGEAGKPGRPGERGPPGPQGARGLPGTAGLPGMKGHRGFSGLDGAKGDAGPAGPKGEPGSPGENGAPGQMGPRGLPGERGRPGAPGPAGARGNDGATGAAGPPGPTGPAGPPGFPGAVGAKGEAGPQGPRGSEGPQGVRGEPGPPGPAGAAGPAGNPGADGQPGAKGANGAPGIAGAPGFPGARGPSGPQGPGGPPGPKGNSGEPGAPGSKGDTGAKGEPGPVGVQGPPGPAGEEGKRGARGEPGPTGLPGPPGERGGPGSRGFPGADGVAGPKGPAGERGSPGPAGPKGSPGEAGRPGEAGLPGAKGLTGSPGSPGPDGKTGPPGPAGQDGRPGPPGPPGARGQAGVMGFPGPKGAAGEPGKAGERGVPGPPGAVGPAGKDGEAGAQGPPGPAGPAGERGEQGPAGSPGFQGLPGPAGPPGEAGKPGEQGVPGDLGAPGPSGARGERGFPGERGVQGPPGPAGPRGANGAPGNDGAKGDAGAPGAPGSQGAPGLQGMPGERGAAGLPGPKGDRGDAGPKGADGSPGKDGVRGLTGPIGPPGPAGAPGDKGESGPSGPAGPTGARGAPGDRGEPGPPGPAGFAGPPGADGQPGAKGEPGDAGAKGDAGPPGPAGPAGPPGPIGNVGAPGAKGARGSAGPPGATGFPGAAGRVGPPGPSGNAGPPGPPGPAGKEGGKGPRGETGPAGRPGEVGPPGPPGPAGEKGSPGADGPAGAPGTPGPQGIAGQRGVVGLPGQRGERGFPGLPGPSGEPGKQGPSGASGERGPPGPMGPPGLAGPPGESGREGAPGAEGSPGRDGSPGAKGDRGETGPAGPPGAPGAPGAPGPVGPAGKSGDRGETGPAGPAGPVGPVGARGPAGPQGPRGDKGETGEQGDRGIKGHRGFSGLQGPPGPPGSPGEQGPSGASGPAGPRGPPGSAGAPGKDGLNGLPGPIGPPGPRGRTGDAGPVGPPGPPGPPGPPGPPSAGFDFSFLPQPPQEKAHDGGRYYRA
Chain of human collagen type I, acid soluble, extracted from placenta (Sigma C7774) (human) (P08123 80-1119 limits assumed, chain 2 of 2, further chain): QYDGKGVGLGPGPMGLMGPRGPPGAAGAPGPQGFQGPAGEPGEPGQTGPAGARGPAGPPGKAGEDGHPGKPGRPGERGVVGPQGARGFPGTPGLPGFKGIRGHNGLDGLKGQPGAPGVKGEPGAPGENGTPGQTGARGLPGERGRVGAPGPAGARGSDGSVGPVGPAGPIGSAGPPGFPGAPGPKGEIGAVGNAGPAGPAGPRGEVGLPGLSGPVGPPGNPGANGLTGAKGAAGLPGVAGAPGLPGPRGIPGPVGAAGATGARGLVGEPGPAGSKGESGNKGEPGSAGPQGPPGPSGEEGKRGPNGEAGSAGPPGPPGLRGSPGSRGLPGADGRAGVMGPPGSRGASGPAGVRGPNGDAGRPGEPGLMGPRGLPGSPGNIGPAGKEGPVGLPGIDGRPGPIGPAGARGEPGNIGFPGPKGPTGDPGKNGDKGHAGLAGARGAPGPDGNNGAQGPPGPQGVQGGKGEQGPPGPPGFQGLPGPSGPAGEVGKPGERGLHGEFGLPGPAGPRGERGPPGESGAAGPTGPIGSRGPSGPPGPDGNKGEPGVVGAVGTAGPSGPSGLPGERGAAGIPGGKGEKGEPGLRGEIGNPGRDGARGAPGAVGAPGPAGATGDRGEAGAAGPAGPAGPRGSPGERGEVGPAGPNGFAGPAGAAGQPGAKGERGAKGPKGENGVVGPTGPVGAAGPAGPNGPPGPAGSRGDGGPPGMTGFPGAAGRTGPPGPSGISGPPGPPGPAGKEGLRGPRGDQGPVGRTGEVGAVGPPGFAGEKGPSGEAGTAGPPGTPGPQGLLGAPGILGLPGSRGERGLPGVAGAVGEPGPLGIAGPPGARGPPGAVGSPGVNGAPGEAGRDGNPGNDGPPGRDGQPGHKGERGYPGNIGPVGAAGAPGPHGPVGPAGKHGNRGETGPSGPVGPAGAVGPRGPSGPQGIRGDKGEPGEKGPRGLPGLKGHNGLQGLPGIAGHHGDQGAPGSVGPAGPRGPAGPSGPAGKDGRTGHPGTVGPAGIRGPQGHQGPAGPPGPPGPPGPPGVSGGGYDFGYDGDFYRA

Binder | % bound [1] [%] | % bound [2] [%]
YHACYQAGCWAW (disulfide 4-9 (inferred)) [SEQ ID NO 137] | 7 | 4
{Gd^T″}-GQWHCTTD[Phe(4-NH2)](Gd^T″)PHHYCLYG (disulfide 5-14 (inferred)) [Compound ID 885] | 9 | 
{Gd^T(3)}-GQWHCTTRFPHHY[Pen]LYG (disulfide 5-14; not fully specified (C-terminus)) [Compound ID 906] | 5 | 
B1 | 2 | 2
B2 | 4 | 2
B3 | 3 | 2
B4 | 2 | 3
{Gd^T″}-GQWHCTTRFPHAYCLYG (disulfide 5-14 (inferred)) [Compound ID 878] | 9 | 8
B5 | 2 | 2
Cbz-GQWHCTK(Gd^T″)RFPHHYCLYG (disulfide 5-14 (inferred)) [Compound ID 940] | 8 | 
{Gd^T(3)}-GQWHCTTRFPHH[d1Nal]CLYG (disulfide 5-14; not fully specified (C-terminus)) [Compound ID 904] | 3 | 
{Gd^T″}-GQWTCSGDEYTWACNYE (disulfide 5-14 (inferred); not fully specified (C-terminus)) [Compound ID 833] | 4 | 
{Gd^T″}-GQWHCTTD[Phe(4-CN)]PHHYCLYG (disulfide 5-14 (inferred)) [Compound ID 883] | 2 | 8
{Gd^T″}-GK([Gly-Gd^T″])WHCTTYFPHHYCL[Dip]G (disulfide 5-14 (inferred); not fully specified) [Compound ID 967] | 4 | 
{Gd^T″}-GQWHCTTLFPHH[dY]CLYG (disulfide 5-14 (inferred); not fully specified (C-terminus)) [Compound ID 907] | 1 | 6
Cbz-GQWHCT[Orn](GdDTPA‑thiourea)RFPHHYCLYG (disulfide 5-14 (inferred); also: gadolinium complex (GdDTPA)) [Compound ID 941] | 5 | 8
{Gd^T″}-DWTCS[dS]DEYTWHCNYE (disulfide 4-13 (inferred); not fully specified (C-terminus)) [Compound ID 836] | 8 | 
{Gd^T}-GQWACSGDEYTWHCNYE (disulfide 5-14 (inferred); not fully specified (C-terminus); reading uncertain) [Compound ID 840] | 3 | 
{Gd^T″}-GQWHCTTRFPHH[dF]CLYG (disulfide 5-14 (inferred); not fully specified (C-terminus)) [Compound ID 901] | 2 | 2
B6 | 4 | 5
{Gd^T}-DWTCS[dL]DEYTWHCNYE (disulfide 4-13 (inferred); not fully specified (C-terminus); reading uncertain) [Compound ID 847] | 7 | 
[dY][dH][dA][dC][dY][dQ][dA]G[dC][dW][dI][dW] (disulfide 4-9 (inferred); not fully specified (C-terminus)) [SEQ ID NO 163] | 53 | 37
{Gd^T″}-GK([Gly-Gd^T″])WHCTTLFPHHVCLYG (disulfide 5-14 (inferred)) [Compound ID 966] | 8 | 
Cbz-GQWHCT[Dap](GdDTPA‑thiourea)RFPHHYCLYG (disulfide 5-14 (inferred); also: gadolinium complex (GdDTPA)) [Compound ID 939] | 5 | 4
YHACAQAGCWIW (disulfide 4-9 (inferred)) [SEQ ID NO 133] | 5 | 4
{Gd^T″}-GQWHCTTD[Phe(3,4-(OMe)2)]PHHYCLYG (disulfide 5-14 (inferred)) [Compound ID 893] | 2 | 4
{Gd^T″}-GQWHCTDRFPHHYCLYG (disulfide 5-14 (inferred)) [Compound ID 936] | 5 | 
B7 | 5 | 3
